From publication PMC3057111

Key:
[1] = molecular target: T1, hnRNPLL RRM1 V136D (thunder) (Mus musculus, UniProt Q921F4 109-213, V136D); assay: NMR titration
T1 sequence: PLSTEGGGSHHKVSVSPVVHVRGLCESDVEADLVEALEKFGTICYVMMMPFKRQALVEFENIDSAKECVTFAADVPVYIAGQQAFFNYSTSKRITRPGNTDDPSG

[2] = molecular target: T1, hnRNPLL RRM1 V136D (thunder); assay: NMR titration; remark: listed apart in the source
hnRNPLL RRM1 WT [3] = molecular target: T2, hnRNPLL RRM1 WT (Mus musculus, UniProt Q921F4 109-213); assay: NMR titration
T2 sequence: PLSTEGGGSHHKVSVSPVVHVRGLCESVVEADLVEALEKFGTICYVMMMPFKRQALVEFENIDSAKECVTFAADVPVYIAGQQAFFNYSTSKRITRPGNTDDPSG

hnRNPLL RRM1 WT [4] = molecular target: T2, hnRNPLL RRM1 WT; assay: NMR titration; remark: listed apart in the source
hnRNPLL RRM1 WT [5] = molecular target: T2, hnRNPLL RRM1 WT; assay: NMR titration; remark: listed apart in the source
[6] = molecular target: T1, hnRNPLL RRM1 V136D (thunder); assay: NMR titration; remark: listed apart in the source
hnRNPLL RRM1 WT [7] = molecular target: T2, hnRNPLL RRM1 WT; assay: ITC
[8] = molecular target: T1, hnRNPLL RRM1 V136D (thunder); assay: ITC

For CCUUACCUGCACGCA (ssRNA) [Ptprc exon 6 ARS 15-mer WT], the Kd [1] was 1000 ± 400 nM, the Kd [2] was 2000 ± 700 nM and the Kd (hnRNPLL RRM1 WT [3]) was 700 ± 700 nM. For the same binder, the Kd (hnRNPLL RRM1 WT [4]) was 100 nM, the Kd (hnRNPLL RRM1 WT [5]) was 1500 ± 1300 nM and the Kd [6] was 1100 ± 400 nM. It also gave a Kd (hnRNPLL RRM1 WT [7]) of 1900 ± 400 nM and a Kd [8] of 3100 ± 1400 nM.
